This assay concerns the target OTi TCR on OT-I mouse T cells. The experiment in a line: cell-based or functional assay.

Take “FITC-conjugated tetramer H2Kb-SIINFEKL (from UniProt P01901 22-305) (peptide-MHC)”: the cytotoxicity of human primary CD8 anti-FITC CAR T cells on OTi cells was over 50%.
